Where “and” joins values, the source holds several entries; their conditions need not be identical. Identical values can stand only once.
B1: Azurin, P00282 (parent)
chain: MLRKLAAVSLLSLLSAPLLAAECSVDIQGNDQMQFNTNAITVDKSCKQFTVNLSHPGNLPKNVMGHNWVLSTAADMQGVVTDGMASGLDKDYLKPDDSRVIAHTKLIGSGEKDSVTFDVSKLKEGEQYMFFCTFPGHSALMKGTLTLK

Variants of: B1
Settings: Pseudomonas aeruginosa (strain ATCC 15692 / DSM 22644 / CIP 104116 / JCM 14847 / LMG 12228 / 1C / PRS 101 / PAO1); pH 7.2; 20 °C; GdnHCl; CD + Fluorescence; Tris-HCl 50 mM; reversible: yes; structure 5AZU; whole UniProt chain shown

With F130S the “ddG of mutation (higher = less stable)” value was 4.6 kcal/mol and 3.7 kcal/mol, the denaturant m value was 3.6 kcal/mol/M and 3.2 kcal/mol/M and the “denaturant midpoint (higher = more stable)” value was 1.24 M and 0.86 M. For the same variant, the unfolding free energy was 4.8 kcal/mol and 2.7 kcal/mol.

With I27S the “ddG of mutation (higher = less stable)” value was 3.6 kcal/mol and 3 kcal/mol, the denaturant m value was 3.6 kcal/mol/M and 3.4 kcal/mol/M and the “denaturant midpoint (higher = more stable)” value was 1.61 M and 1.02 M. The unfolding free energy was 5.8 kcal/mol and 3.4 kcal/mol.

Source: FireProtDB (doi:10.1046/j.1432-1327.1999.00751.x)
